Data: US20150344570A1 (published 2015)

B1: GpH7-A5/GpH7-B3 variant S337_09D/GpL16-k0 (antibody, human IgG1, kappa)
heavy 1: not shown
heavy 2: not shown
light: DIVMTQSPLSLPVTPGEPASISCQASESLVHSNRNTYLHWYLQKPGQSPQLLIYKVSNRFSGVPDRFSGSGSGTDFTLKISRVEAEDVGVYYCSQNTHVPPTFGQGTKVEIERTVAAPSVFIFPPSDEQLKSGTASVVCLLNNFYPREAKVQWKVDNALQSGNSQESVTEQDSKDSTYSLSSTLTLSKADYEKHKVYACEVTHQGLSSPVTKSFNRGEC
notes: heterodimerized IgG1, mutation in one H chain only; also called He Ab
B2: GpH7-A5/GpH7-B3 variant T335_10E/GpL16-k0 (antibody, human IgG1, kappa)
heavy 1: not shown
heavy 2: not shown
light: DIVMTQSPLSLPVTPGEPASISCQASESLVHSNRNTYLHWYLQKPGQSPQLLIYKVSNRFSGVPDRFSGSGSGTDFTLKISRVEAEDVGVYYCSQNTHVPPTFGQGTKVEIERTVAAPSVFIFPPSDEQLKSGTASVVCLLNNFYPREAKVQWKVDNALQSGNSQESVTEQDSKDSTYSLSSTLTLSKADYEKHKVYACEVTHQGLSSPVTKSFNRGEC
notes: as for B1
B3: GpH7-A5/GpH7-B3 variant T335_07I/GpL16-k0 (antibody, human IgG1, kappa)
heavy 1: not shown
heavy 2: not shown
light: DIVMTQSPLSLPVTPGEPASISCQASESLVHSNRNTYLHWYLQKPGQSPQLLIYKVSNRFSGVPDRFSGSGSGTDFTLKISRVEAEDVGVYYCSQNTHVPPTFGQGTKVEIERTVAAPSVFIFPPSDEQLKSGTASVVCLLNNFYPREAKVQWKVDNALQSGNSQESVTEQDSKDSTYSLSSTLTLSKADYEKHKVYACEVTHQGLSSPVTKSFNRGEC
notes: as for B1
B4: GpH7-A5/GpH7-B3 variant Y296_06M/GpL16-k0 (antibody, human IgG1, kappa)
heavy 1: not shown
heavy 2: not shown
light: DIVMTQSPLSLPVTPGEPASISCQASESLVHSNRNTYLHWYLQKPGQSPQLLIYKVSNRFSGVPDRFSGSGSGTDFTLKISRVEAEDVGVYYCSQNTHVPPTFGQGTKVEIERTVAAPSVFIFPPSDEQLKSGTASVVCLLNNFYPREAKVQWKVDNALQSGNSQESVTEQDSKDSTYSLSSTLTLSKADYEKHKVYACEVTHQGLSSPVTKSFNRGEC
notes: as for B1
B5: GpH7-A5/GpH7-B3 variant T335_19Q/GpL16-k0 (antibody, human IgG1, kappa)
heavy 1: not shown
heavy 2: not shown
light: DIVMTQSPLSLPVTPGEPASISCQASESLVHSNRNTYLHWYLQKPGQSPQLLIYKVSNRFSGVPDRFSGSGSGTDFTLKISRVEAEDVGVYYCSQNTHVPPTFGQGTKVEIERTVAAPSVFIFPPSDEQLKSGTASVVCLLNNFYPREAKVQWKVDNALQSGNSQESVTEQDSKDSTYSLSSTLTLSKADYEKHKVYACEVTHQGLSSPVTKSFNRGEC
notes: as for B1
B6: GpH7-A5/GpH7-B3 variant T335_05P/GpL16-k0 (antibody, human IgG1, kappa)
heavy 1: not shown
heavy 2: not shown
light: DIVMTQSPLSLPVTPGEPASISCQASESLVHSNRNTYLHWYLQKPGQSPQLLIYKVSNRFSGVPDRFSGSGSGTDFTLKISRVEAEDVGVYYCSQNTHVPPTFGQGTKVEIERTVAAPSVFIFPPSDEQLKSGTASVVCLLNNFYPREAKVQWKVDNALQSGNSQESVTEQDSKDSTYSLSSTLTLSKADYEKHKVYACEVTHQGLSSPVTKSFNRGEC
notes: as for B1
B7: GpH7-A5/GpH7-B3 variant Y296_11K/GpL16-k0 (antibody, human IgG1, kappa)
heavy 1: not shown
heavy 2: not shown
light: DIVMTQSPLSLPVTPGEPASISCQASESLVHSNRNTYLHWYLQKPGQSPQLLIYKVSNRFSGVPDRFSGSGSGTDFTLKISRVEAEDVGVYYCSQNTHVPPTFGQGTKVEIERTVAAPSVFIFPPSDEQLKSGTASVVCLLNNFYPREAKVQWKVDNALQSGNSQESVTEQDSKDSTYSLSSTLTLSKADYEKHKVYACEVTHQGLSSPVTKSFNRGEC
notes: as for B1
B8: GpH7-A5/GpH7-B3 variant T335_12R/GpL16-k0 (antibody, human IgG1, kappa)
heavy 1: not shown
heavy 2: not shown
light: DIVMTQSPLSLPVTPGEPASISCQASESLVHSNRNTYLHWYLQKPGQSPQLLIYKVSNRFSGVPDRFSGSGSGTDFTLKISRVEAEDVGVYYCSQNTHVPPTFGQGTKVEIERTVAAPSVFIFPPSDEQLKSGTASVVCLLNNFYPREAKVQWKVDNALQSGNSQESVTEQDSKDSTYSLSSTLTLSKADYEKHKVYACEVTHQGLSSPVTKSFNRGEC
notes: as for B1
B9: GpH7-A5/GpH7-B3 variant T335_18N/GpL16-k0 (antibody, human IgG1, kappa)
heavy 1: not shown
heavy 2: not shown
light: DIVMTQSPLSLPVTPGEPASISCQASESLVHSNRNTYLHWYLQKPGQSPQLLIYKVSNRFSGVPDRFSGSGSGTDFTLKISRVEAEDVGVYYCSQNTHVPPTFGQGTKVEIERTVAAPSVFIFPPSDEQLKSGTASVVCLLNNFYPREAKVQWKVDNALQSGNSQESVTEQDSKDSTYSLSSTLTLSKADYEKHKVYACEVTHQGLSSPVTKSFNRGEC
notes: as for B1
B10: GpH7-A5/GpH7-B3 variant T335_08L/GpL16-k0 (antibody, human IgG1, kappa)
heavy 1: not shown
heavy 2: not shown
light: DIVMTQSPLSLPVTPGEPASISCQASESLVHSNRNTYLHWYLQKPGQSPQLLIYKVSNRFSGVPDRFSGSGSGTDFTLKISRVEAEDVGVYYCSQNTHVPPTFGQGTKVEIERTVAAPSVFIFPPSDEQLKSGTASVVCLLNNFYPREAKVQWKVDNALQSGNSQESVTEQDSKDSTYSLSSTLTLSKADYEKHKVYACEVTHQGLSSPVTKSFNRGEC
notes: as for B1
B11: GpH7-A5/GpH7-B3 variant T335_09D/GpL16-k0 (antibody, human IgG1, kappa)
heavy 1: not shown
heavy 2: not shown
light: DIVMTQSPLSLPVTPGEPASISCQASESLVHSNRNTYLHWYLQKPGQSPQLLIYKVSNRFSGVPDRFSGSGSGTDFTLKISRVEAEDVGVYYCSQNTHVPPTFGQGTKVEIERTVAAPSVFIFPPSDEQLKSGTASVVCLLNNFYPREAKVQWKVDNALQSGNSQESVTEQDSKDSTYSLSSTLTLSKADYEKHKVYACEVTHQGLSSPVTKSFNRGEC
notes: as for B1

Molecular target: T1, FcγRIa (human, UniProt P12314 16-292)
T1 construct: extracellular domain; soluble His-tagged extracellular domain expressed in FreeStyle293 cells, used as analyte in Biacore; also called FcgRI; CD64
T1 sequence (P12314 16-292): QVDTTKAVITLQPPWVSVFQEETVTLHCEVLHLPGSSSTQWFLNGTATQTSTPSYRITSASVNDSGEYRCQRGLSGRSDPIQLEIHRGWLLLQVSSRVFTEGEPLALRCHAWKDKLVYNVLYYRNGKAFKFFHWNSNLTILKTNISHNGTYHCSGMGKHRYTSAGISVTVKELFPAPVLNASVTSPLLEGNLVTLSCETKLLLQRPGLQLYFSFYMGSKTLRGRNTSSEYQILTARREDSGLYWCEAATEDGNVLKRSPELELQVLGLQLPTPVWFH
Assay: SPR (Biacore), captured antibody, FcγRIa analyte; relative to GpH7-A5/GpH7-B3/GpL16-k0

Binder	He/Con_1a
B1	106 relative, control = 100
B2	109 relative, control = 100
B3	109 relative, control = 100
B4	104 relative, control = 100
B5	105 relative, control = 100
B6	106 relative, control = 100
B7	105 relative, control = 100
B8	113 relative, control = 100
B9	106 relative, control = 100
B10	115 relative, control = 100
B11	108 relative, control = 100
